Source: paper PMC2132731 (The Journal of Cell Biology, 1998)
Several values for one entry are separate records, joined by “and”; a condition that tells them apart may be missing. Equal entries are not always repeated.

T1: Pan1p EH1 (96–403) (S. cerevisiae, UniProt P32521 96-403)
T1 sequence (looked up): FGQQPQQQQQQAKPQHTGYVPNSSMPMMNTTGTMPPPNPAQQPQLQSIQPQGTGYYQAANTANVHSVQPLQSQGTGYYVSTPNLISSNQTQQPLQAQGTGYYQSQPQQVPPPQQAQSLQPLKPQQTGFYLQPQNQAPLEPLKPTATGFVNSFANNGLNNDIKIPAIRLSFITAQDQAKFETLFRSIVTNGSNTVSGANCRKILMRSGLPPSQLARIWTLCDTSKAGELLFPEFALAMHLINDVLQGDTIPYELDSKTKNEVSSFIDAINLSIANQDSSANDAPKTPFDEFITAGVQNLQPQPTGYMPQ

T2: Pan1p EH2 (544–713) (S. cerevisiae, UniProt P32521 544-713)
T2 sequence (looked up): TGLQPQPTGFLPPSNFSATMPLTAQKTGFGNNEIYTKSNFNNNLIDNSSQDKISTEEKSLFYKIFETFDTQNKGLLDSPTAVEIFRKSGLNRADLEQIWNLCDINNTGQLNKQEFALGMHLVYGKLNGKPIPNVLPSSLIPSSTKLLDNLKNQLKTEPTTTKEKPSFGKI

T3: Pan1p EH1–2 (96–713) (S. cerevisiae, UniProt P32521 96-713)
T3 sequence (looked up): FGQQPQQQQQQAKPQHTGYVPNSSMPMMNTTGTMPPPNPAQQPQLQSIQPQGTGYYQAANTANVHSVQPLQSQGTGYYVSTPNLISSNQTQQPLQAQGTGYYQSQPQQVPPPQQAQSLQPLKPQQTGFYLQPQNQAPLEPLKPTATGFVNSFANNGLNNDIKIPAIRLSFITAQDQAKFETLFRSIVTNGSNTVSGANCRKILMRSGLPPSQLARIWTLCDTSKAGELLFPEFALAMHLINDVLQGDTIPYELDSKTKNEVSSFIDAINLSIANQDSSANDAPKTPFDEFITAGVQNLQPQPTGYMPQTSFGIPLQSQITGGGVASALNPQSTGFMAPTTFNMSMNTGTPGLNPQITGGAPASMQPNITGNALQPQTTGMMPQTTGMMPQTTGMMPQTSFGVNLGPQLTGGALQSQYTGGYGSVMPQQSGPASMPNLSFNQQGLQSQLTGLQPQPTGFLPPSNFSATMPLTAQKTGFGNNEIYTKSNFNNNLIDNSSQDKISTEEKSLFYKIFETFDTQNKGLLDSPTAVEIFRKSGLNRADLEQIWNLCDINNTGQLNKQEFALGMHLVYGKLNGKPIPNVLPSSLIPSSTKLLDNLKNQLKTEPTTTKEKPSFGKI

T4: Pan1p EH2 (96–145/403–713) (S. cerevisiae, UniProt P32521 96-145; P32521 403-713)
T4 chain (looked up): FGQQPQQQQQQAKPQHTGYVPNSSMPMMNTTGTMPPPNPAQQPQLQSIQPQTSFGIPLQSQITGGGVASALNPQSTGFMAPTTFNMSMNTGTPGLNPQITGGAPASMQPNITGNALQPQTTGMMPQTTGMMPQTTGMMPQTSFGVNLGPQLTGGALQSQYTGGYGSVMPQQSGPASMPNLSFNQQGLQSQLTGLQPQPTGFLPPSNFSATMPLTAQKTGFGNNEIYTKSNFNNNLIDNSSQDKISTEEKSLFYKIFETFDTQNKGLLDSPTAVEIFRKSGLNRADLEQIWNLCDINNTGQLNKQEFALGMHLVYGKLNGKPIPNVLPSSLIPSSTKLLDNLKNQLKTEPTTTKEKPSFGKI

T5: Pan1p (S. cerevisiae (endogenous in yeast cells)), P32521
T5 chain: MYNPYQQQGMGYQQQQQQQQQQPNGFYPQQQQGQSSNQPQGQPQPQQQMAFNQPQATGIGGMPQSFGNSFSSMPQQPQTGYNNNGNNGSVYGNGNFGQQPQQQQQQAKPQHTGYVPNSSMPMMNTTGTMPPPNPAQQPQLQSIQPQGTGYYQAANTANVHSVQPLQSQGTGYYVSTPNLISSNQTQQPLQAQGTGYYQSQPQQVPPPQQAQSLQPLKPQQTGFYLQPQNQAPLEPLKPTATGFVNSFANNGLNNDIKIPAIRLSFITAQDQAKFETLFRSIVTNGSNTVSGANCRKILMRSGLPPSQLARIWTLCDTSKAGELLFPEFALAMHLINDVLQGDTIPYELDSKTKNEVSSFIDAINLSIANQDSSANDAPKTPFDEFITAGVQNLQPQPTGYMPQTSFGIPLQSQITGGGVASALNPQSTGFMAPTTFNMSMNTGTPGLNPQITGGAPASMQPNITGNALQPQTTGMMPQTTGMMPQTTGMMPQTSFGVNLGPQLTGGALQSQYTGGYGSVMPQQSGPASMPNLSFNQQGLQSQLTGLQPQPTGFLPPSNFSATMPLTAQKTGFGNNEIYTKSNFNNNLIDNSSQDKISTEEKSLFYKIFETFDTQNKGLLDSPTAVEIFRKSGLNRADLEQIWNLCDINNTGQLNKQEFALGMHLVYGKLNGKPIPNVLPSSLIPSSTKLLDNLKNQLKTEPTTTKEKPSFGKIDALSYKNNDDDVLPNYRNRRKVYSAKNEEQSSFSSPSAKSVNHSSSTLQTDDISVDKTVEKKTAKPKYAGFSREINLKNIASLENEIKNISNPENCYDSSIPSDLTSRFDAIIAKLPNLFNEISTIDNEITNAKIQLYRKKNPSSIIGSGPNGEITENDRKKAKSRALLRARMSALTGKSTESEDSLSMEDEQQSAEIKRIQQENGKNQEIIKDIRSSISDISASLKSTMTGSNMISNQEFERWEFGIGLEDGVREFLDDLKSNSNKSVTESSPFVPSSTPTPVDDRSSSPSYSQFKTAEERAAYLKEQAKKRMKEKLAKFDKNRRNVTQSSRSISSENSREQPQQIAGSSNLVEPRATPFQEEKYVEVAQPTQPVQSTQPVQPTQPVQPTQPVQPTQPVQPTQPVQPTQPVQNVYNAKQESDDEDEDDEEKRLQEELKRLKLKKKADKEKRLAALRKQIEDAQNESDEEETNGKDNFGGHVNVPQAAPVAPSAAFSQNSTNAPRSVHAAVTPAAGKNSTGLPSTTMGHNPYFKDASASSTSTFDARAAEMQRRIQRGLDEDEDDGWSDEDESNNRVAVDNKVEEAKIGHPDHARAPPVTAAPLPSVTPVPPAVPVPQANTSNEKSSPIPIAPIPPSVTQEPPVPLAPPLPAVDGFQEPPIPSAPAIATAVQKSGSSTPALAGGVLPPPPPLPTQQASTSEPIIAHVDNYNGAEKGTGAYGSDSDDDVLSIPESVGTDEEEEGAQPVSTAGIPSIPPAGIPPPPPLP


What was measured:
[1] = molecular target: GST-yAP180A C5 (S. cerevisiae); experiment: pull-down
[2] = molecular target: T1, Pan1p EH1 (96–403); experiment: two-hybrid
[3] = molecular target: T2, Pan1p EH2 (544–713); experiment: two-hybrid
[4] = molecular target: T3, Pan1p EH1–2 (96–713); experiment: two-hybrid
[5] = molecular target: T4, Pan1p EH2 (96–145/403–713); experiment: two-hybrid
[6] = molecular target: T5, Pan1p (S. cerevisiae (endogenous in …)); experiment: co-IP; settings: remark: other sources report otherwise

Molecule | percent of Chc1p depleted from the unbound fraction [1] [%] | units β-galactosidase activity [2] | units β-galactosidase activity [3] | units β-galactosidase activity [4] | units β-galactosidase activity [5] | percent of yAP180A coimmunoprecipitated [6]
yeast clathrin (from UniProt P22137 1-1653; P17891 1-233) (complex) | 50 | – | – | – | – | –
yAP180A 432–637 (domain or fragment, S. cerevisiae, UniProt P38856 432-637, looked up) GGYSVSQDTTAASNQQVSHSQTGSNNPFALHNAATIATGNPAHENVLNNPFSRPNFDEQNTNMPLQQQIISNPFQNQTYNQQQFQQQKMPLSSINSVMTTPTSMQGSMNIPQRFDKMEFQAHYTQNHLQQQQQQQQQQQQQQQQQPQQGYYVPATAGANPVTNITGTVQPQNFPFYPQQQPQPEQSQTQQPVLGNQYANNLNLIDM | – | 6 ± 1 Units β-galactosidase activity | 4 ± 1 Units β-galactosidase activity | 117 ± 75 Units β-galactosidase activity | 33 ± 4 Units β-galactosidase activity | –
yAP180A, P38856 1-637 (natural protein) MTTYFKLVKGATKIKSAPPKQKYLDPILLGTSNEEDFYEIVKGLDSRINDTAWTIVYKSLLVVHLMIREGSKDVALRYYSRNLEFFDIENIRGSNGSASGDMRALDRYDNYLKVRCREFGKIKKDYVRDGYRTLKLNSGNYGSSRNKQHSINIALDHVESLEVQIQALIKNKYTQYDLSNELIIFGFKLLIQDLLALYNALNEGIITLLESFFELSHHNAERTLDLYKTFVDLTEHVVRYLKSGKTAGLKIPVIKHITTKLVRSLEEHLIEDDKTHNTFVPVDSSQGSAGAVVAKSTAQERLEQIREQKRILEAQLKNEQVAISPALTTVTAAQSYNPFGTDSSMHTNIPMAVANQTQQIANNPFVSQTQPQVMNTPTAHTEPANLNVPEYAAVQHTVNFNPVQDAGVSAQQTGYYSINNHLTPTFTGAGFGGYSVSQDTTAASNQQVSHSQTGSNNPFALHNAATIATGNPAHENVLNNPFSRPNFDEQNTNMPLQQQIISNPFQNQTYNQQQFQQQKMPLSSINSVMTTPTSMQGSMNIPQRFDKMEFQAHYTQNHLQQQQQQQQQQQQQQQQQPQQGYYVPATAGANPVTNITGTVQPQNFPFYPQQQPQPEQSQTQQPVLGNQYANNLNLIDM | – | – | – | – | – | 3% and 5%
yAP180B 429–568 (domain or fragment, S. cerevisiae, UniProt P53309 429-568, looked up) GGYTTTENNAIMTGTLDPTKTGSNNPFSLENIAREQQQQNFQNSPNPFTLQQAQTTPILAHSQTGNPFQAQNVVTSPMGTYMTNPVAGQLQYASTGAQQQPQMMQGQQTGYVMVPTAFVPINQQQQQQQHQQENPNLIDI | – | 70 ± 9 Units β-galactosidase activity | 158 ± 15 Units β-galactosidase activity | 362 ± 67 Units β-galactosidase activity | 342 ± 15 Units β-galactosidase activity | –
yAP180A 24–637 (domain or fragment, S. cerevisiae, UniProt P38856 24-637, looked up) LDPILLGTSNEEDFYEIVKGLDSRINDTAWTIVYKSLLVVHLMIREGSKDVALRYYSRNLEFFDIENIRGSNGSASGDMRALDRYDNYLKVRCREFGKIKKDYVRDGYRTLKLNSGNYGSSRNKQHSINIALDHVESLEVQIQALIKNKYTQYDLSNELIIFGFKLLIQDLLALYNALNEGIITLLESFFELSHHNAERTLDLYKTFVDLTEHVVRYLKSGKTAGLKIPVIKHITTKLVRSLEEHLIEDDKTHNTFVPVDSSQGSAGAVVAKSTAQERLEQIREQKRILEAQLKNEQVAISPALTTVTAAQSYNPFGTDSSMHTNIPMAVANQTQQIANNPFVSQTQPQVMNTPTAHTEPANLNVPEYAAVQHTVNFNPVQDAGVSAQQTGYYSINNHLTPTFTGAGFGGYSVSQDTTAASNQQVSHSQTGSNNPFALHNAATIATGNPAHENVLNNPFSRPNFDEQNTNMPLQQQIISNPFQNQTYNQQQFQQQKMPLSSINSVMTTPTSMQGSMNIPQRFDKMEFQAHYTQNHLQQQQQQQQQQQQQQQQQPQQGYYVPATAGANPVTNITGTVQPQNFPFYPQQQPQPEQSQTQQPVLGNQYANNLNLIDM | – | 18 ± 7 Units β-galactosidase activity | 2 ± 0.4 Units β-galactosidase activity | 78 ± 2 Units β-galactosidase activity | 23 ± 4 Units β-galactosidase activity | –
